# Results taken from patent US20260265334A1, “STAPLED PEPTIDES” (THE FLOREY INSTITUTE OF NEUROSCIENCE AND MENTAL HEALTH, priority 2023, published 2026).
# Read-outs that look alike come from different tables or passages of the source. Bridge positions count the residues as written; N and C are the ends. Square brackets hold non-standard residues; d marks the D form. Ends that are not written are not given here. Peptide text beside a SMILES is read from it. I, II: the chains in the order shown. ξ: configuration not given here. αMeF = C[C@](N)(Cc1ccccc1)C(=O)O; S5 = C=CCCC[C@](C)(N)C(=O)O; αMeC = C[C@](N)(CS)C(=O)O; ξF = NC(Cc1ccccc1)C(=O)O
# B1: INSL5-A13 (two-chain INSL5 analogue, RXFP4 agonist) (ligand)
# chain 1: CTDGASMKDLSALC
# chain 2: KESVRLCGLEYIRTVIYICASSRW
# modifications: disulfide I:1-II:7, I:14-II:19
# notes: Disulfide bonds: Cys 1 of A chain to Cys 7 of B chain; Cys 14 of A chain to Cys 19 of B chain; also called Analogue 13; two chain agonist
# B2: αF stapled analogue (INSL5 B-chain, Formula V) (peptide)
# peptide: SGL[αMeF]YIR[αMeF]VIYISGGSRW
# notes: 18-residue RXFP4 agonist; also called aF stapled analogue; πI5B
# B3: πI5B7-24-GG-S19E (peptide)
# peptide: SGL[αMeF]YIR[αMeF]VIYIEGGSRW
# notes: 18-residue RXFP4 agonist with two αF residues and glutamic acid at residue 19 (numbering of native INSL5 B chain)
# B4: Linear B-chain (INSL5 B chain analogue, Formula IV) (peptide)
# peptide: SGLEYIRTVIYISGGSRW-OH
# notes: Residues numbered 7-24 after the native INSL5 B chain; also called control
# B5: INSL5-A13: B7-24_G20/21 (two-chain G20/21 analogue) (ligand)
# chain 1: CTDGASMKDLSALC
# chain 2: CGLEYIRTVIYICGGSRW
# notes: GlyGly at positions B20 and B21; also called Formula III
# B6: INSL5-A13: B7-24 (reduced two chain analogue) (ligand)
# chain 1: CTDGASMKDLSALC
# chain 2: CGLEYIRTVIYICASSRW
# modifications: not fully specified; cysteine pairing not given here
# notes: also called Formula II
# B7: Native INSL5 (human insulin-like peptide 5) (ligand)
# chain 1: ZDLQTLCCTDGCSMTDLSALC
# chain 2: KESVRLCGLEYIRTVIYICASSRW
# Key:
# RXFP3 [1] = biological target: T1, RXFP3 (Homo sapiens, UniProt Q9NSD7); experiment: Eu-H3B1-22R competition binding assay in CHO-K1-RXFP3 cells; details: 5 nM Eu-H3B1-22R, mean ± SEM (n)
# T1 construct: expressed in transfected cells
# T1 sequence (Q9NSD7 1-469): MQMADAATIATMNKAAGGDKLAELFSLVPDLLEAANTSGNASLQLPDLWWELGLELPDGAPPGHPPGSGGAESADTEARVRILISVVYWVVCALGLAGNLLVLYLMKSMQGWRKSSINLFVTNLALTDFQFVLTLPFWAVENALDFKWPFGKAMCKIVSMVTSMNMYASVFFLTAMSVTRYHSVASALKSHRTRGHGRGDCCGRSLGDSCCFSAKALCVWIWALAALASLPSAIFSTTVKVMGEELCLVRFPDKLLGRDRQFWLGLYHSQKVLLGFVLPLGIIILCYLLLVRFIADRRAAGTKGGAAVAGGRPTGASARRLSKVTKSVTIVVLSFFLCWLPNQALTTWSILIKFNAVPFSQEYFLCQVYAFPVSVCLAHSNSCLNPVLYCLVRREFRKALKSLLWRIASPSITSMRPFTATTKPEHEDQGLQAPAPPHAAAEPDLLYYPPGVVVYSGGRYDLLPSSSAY
# Method: An Eu-H3B1-22R competition binding assay was conducted in CHO-K1-RXFP3 cells.
# (§1) Competition binding curves for each peptide were performed in triplicate and each experiment was performed independently at least three times. Fluorescent measurements were carried out at excitation of 340 nm and emission of 614 nm on a BMG POLARstar plate reader (BMG Labtech, Melbourne, Australia). Pooled data were presented as mean±S.E.M. of specific binding and are fitted using a one-site binding curve in GraphPad Prism version 8 (GraphPad Inc., San Diego, USA). Statistical analyses were conducted using one-way analysis of variance with uncorrected Fisher's least significant difference (LSD) post-hoc analysis in GraphPad Prism version 9.
# (§2) Competition binding and cAMP activity assay were conducted by a procedure analogous to that described above for Example 3. The results are shown in FIG. 24 (RXFP3) and FIG. 25 (RXFP4).
# RXFP3 [2] = biological target: T1, RXFP3; experiment: Inhibition of forskolin-induced cAMP activity in CHO-K1-RXFP3 cells (pCRE β-galactosidase reporter); format: cell-based; details: 5 μM forskolin, 6 hours
# Method: Since RXFP3 is coupled to Gi/o proteins, peptides were tested for their ability to activate RXFP3 as measured via their ability to inhibit forskolin-induced cAMP activity in CHO-K1-RXFP3 or CHO-K1-RXFP4 cells transfected with a pCRE (cAMP Response Element) β-galactosidase reporter plasmid (as described in Belgi, A et al., Structure and function relationship of murine insulin-like peptide 5 (INSL5): free C-terminus is essential for RXFP4 receptor binding and activation. Biochemistry 2011, 50 (39), 8352-61; and Haugaard-Kedstrom, L. M et al., Synthesis and pharmacological characterization of a europium-labelled single-chain antagonist for binding studies of the relaxin-3 receptor RXFP3. Amino Acids 2015, 47 (6), 1267-71). For agonist assays, cells were stimulated with forskolin (5 μM for RXFP3, 1 μM for RXFP4)±increasing concentrations of each peptide for 6 hours. Data were expressed as the % forskolin activity, whereby 100% was defined as forskolin alone and 0% as maximum agonist stimulation (1 μM Analogue 2 for RXFP3 and 1 μM Analogue 13 for RXFP4). Data were analysed and plotted using GraphPad Prism 9 and are expressed as the mean±SEM of the pooled data. Statistical analysis was conducted using one-way ANOVA with Uncorrected Fisher's LSD post-hoc analysis using GraphPad Prism 9.
# as §2
# RXFP4 [3] = biological target: T2, RXFP4 (Homo sapiens, UniProt Q8TDU9); experiment: Eu-R3/I5 competition binding assay in CHO-K1-RXFP4 cells; parameters: expressed in transfected cells
# T2 sequence (Q8TDU9 whole entry): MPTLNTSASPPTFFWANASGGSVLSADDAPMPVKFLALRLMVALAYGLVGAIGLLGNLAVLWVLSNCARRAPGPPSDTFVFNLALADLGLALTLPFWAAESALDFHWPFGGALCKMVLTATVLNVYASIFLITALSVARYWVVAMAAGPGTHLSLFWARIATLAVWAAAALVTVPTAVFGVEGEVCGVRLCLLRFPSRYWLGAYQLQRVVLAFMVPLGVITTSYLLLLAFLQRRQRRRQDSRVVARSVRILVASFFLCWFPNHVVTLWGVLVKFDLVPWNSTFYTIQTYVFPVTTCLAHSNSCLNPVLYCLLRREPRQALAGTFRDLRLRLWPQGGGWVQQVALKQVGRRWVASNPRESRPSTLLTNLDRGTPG
# Method: An Eu-R3/15 competition binding assay in CHO-K1-RXFP4 cells was carried out.
# as §1
# (§3) An additional analogue of INSL5 was utilised as a control, INSL5-A13, having an A chain (SEQ ID NO: 9) and a B chain (SEQ ID NO: 10) with a first disulfide bond between Cys 1 of the A chain and Cys 7 of the B chain, and a second disulfide bond between Cys 14 of the A chain and Cys 19 of the B chain:
# as §2
# RXFP4 [4] = biological target: T2, RXFP4; experiment: Inhibition of forskolin-induced cAMP activity in CHO-K1-RXFP4 cells (pCRE β-galactosidase reporter); format: cell-based; parameters: expressed in transfected cells; details: for cAMP pEC50: RXFP4, CHO-K1-RXFP4 cells, 1 μM forskolin, 6 hours, Table 3
# Method: For agonist assays, cells were stimulated with forskolin (5 μM for RXFP3, 1 μM for RXFP4)±increasing concentrations of each peptide for 6 hours. Data were expressed as the % forskolin activity, whereby 100% was defined as forskolin alone and 0% as maximum agonist stimulation (1 μM Analogue 2 for RXFP3 and 1 μM Analogue 13 for RXFP4). Data were analysed and plotted using GraphPad Prism 9 and are expressed as the mean±SEM of the pooled data. Statistical analysis was conducted using one-way ANOVA with Uncorrected Fisher's LSD post-hoc analysis using GraphPad Prism 9.
# as §3, §2
# [5] = biological target: T3, RXFP4 (relaxin family peptide receptor 4) on CHO-K1-RXFP4 cells (UniProt Q8TDU9 1-374, limits assumed); experiment: cell-based or functional assay
# T3 sequence (Q8TDU9 whole entry): as above
# [6] = biological target: T3, RXFP4 (relaxin family peptide receptor …); experiment: competition with Eu-R3/I5 on CHO-K1-RXFP4 cells
# [7] = biological target: T3, RXFP4 (relaxin family peptide receptor …); experiment: competition with Eu-R3/I5 on CHO-K1-RXFP4 cells; remark: listed apart in the source
# [8] = biological target: T4, RXFP3 (relaxin family peptide receptor 3) on CHO-K1-RXFP3 cells (UniProt Q9NSD7 1-469, limits assumed); experiment: competition with Eu-H3B1-22R on CHO-K1-RXFP3 cells
# T4 construct: whole, on cells; also called GPCR135
# T4 sequence (looked up): T1 sequence (Q9NSD7 1-469)
# [9] = biological target: T5, LgBiT-RXFP4 (HEK-LgBiT-RXFP4 crude membrane fractions) (UniProt Q8TDU9 1-374); experiment: NanoBiT competition with 2 nM SmBiT-R3/I5 on HEK-LgBiT-RXFP4 membranes
# T5 construct: Assayed as crude membrane fractions (25 µg protein) of HEK cells; not shown: LgBiT tag of NanoBiT
# T5 sequence (Q8TDU9 whole entry): as above
molecule,measurement,setting,value
CC[C@H](C)[C@H](NC(=O)[C@H](Cc1ccccc1)NC(=O)C(Cc1ccccc1)NC(=O)[C@H](CCCNC(=N)N)NC(=O)CNC(=O)[C@@H](N)CO)C(=O)N[C@@H](CCCNC(=N)N)C(=O)NC(Cc1ccccc1)C(=O)N[C@H](C(=O)N[C@H](C(=O)N[C@@H](Cc1ccccc1)C(=O)N[C@H](C(=O)N[C@@H](CO)C(=O)NCC(=O)NCC(=O)N[C@@H](CO)C(=O)N[C@@H](CCCNC(=N)N)C(=O)N[C@@H](Cc1c[nH]c2ccccc12)C(=O)O)[C@@H](C)O)[C@@H](C)CC)C(C)C (stereo partly drawn) [H3B10-27(13/17F)] (H-SGR[ξF]FIR[ξF]VIFTSGGSRW-OH; N-terminus assumed),Ki,"RXFP3 [1]; Table 2, read-out: Eu-H3B1-22R pKi (converted)",> 10000 nM
same,EC50,"RXFP3 [2]; Table 2, read-out: cAMP pEC50 (converted)",> 10000 nM
same,Eu-R3/I5 pKi,"RXFP4 [3]; RXFP4, CHO-K1-RXFP4 cells, 5 nM Eu-R3/I5, Table 3",No binding (3)
same,cAMP pEC50,RXFP4 [4],No activity (4)
CC[C@H](C)[C@H](NC(=O)[C@H](Cc1ccc(O)cc1)NC(=O)[C@@H](NC(=O)[C@@H](NC(=O)[C@]1(C)CSSC[C@](C)(NC(=O)[C@H](CC(C)C)NC(=O)CNC(=O)[C@H](CO)NC(C)=O)C(=O)N[C@@H](Cc2ccc(O)cc2)C(=O)N[C@@H]([C@@H](C)CC)C(=O)N[C@@H](CCCNC(=N)N)C(=O)N1)C(C)C)[C@@H](C)CC)C(=O)N[C@@H](CO)C(=O)NCC(=O)NCC(=O)N[C@@H](CO)C(=O)N[C@@H](CCCNC(=N)N)C(=O)N[C@@H](Cc1c[nH]c2ccccc12)C(=O)O [Disulfide bridge stapled analogue] (Ac-SGL[αMeC]YIR[αMeC]VIYISGGSRW-OH; disulfide 4-8; C-terminus assumed),Ki,RXFP4 [3],46.8 nM
same,EC50,RXFP4 [4],145 nM
"SGLEYIRTVIYISGGSRW-OH [Linear B-chain, S-G-L-E-Y-I-R-T-V-I-Y-I-S-G-G-S-R-W-OH]",Eu-R3/I5 pKi,"RXFP4 [3]; RXFP4, Table 5",No binding (3)
CC[C@H](C)[C@@H]1NC(=O)[C@H](Cc2ccccc2)NC(=O)[C@H](CCC(=O)O)NC(=O)[C@H](CCCNC(=N)N)NC(=O)CNC(=O)[C@@H](NC(=O)[C@H](CC(C)C)NC(=O)[C@H](CCCNC(=N)N)NC(=O)[C@@H](NC(=O)CNC(=O)[C@H](Cc2ccc(O)cc2)NC(=O)[C@@H]2CCCN2C(=O)[C@H](C)NC(=O)[C@H](C)NC(=O)[C@@H](N)CCCNC(=N)N)C(C)C)CSSC[C@@H]2NC(=O)[C@@H](NC(=O)[C@H](CO)NC(=O)[C@H](CO)NC(=O)[C@H](CO)NC(=O)[C@H](CC(C)C)NC(=O)CNC(=O)[C@H](C)NC(=O)[C@H](CC(C)C)NC(=O)[C@@H](NC(=O)[C@@H](N)CC(=O)O)C(C)C)CSSC[C@H](NC(=O)CNC(=O)[C@H](Cc3c[nH]c4ccccc34)NC(=O)[C@H](CCCCN)NC2=O)C(=O)N[C@@H](CO)C(=O)N[C@@H](CCCCN)C(=O)N[C@@H](CO)C(=O)N[C@@H](CCC(=O)O)C(=O)N[C@@H]([C@@H](C)CC)C(=O)N[C@@H](CO)C(=O)N[C@@H](CO)C(=O)N[C@@H](CC(C)C)C(=O)N[C@H](C(=O)O)CSSC[C@@H](C(=O)NCC(=O)NCC(=O)N[C@@H](CO)C(=O)N[C@@H](CCCNC(=N)N)C(=O)N[C@@H](Cc2c[nH]c3ccccc23)C(=O)O)NC(=O)[C@H]([C@@H](C)O)NC(=O)[C@H](Cc2ccccc2)NC(=O)[C@H]([C@@H](C)CC)NC(=O)[C@H](C(C)C)NC(=O)[C@H](C)NC(=O)[C@H](CCCNC(=N)N)NC1=O [H3 relaxin],Eu-H3B1-22R pKi,RXFP3 [1]; Table 2,7.64 ± 0.09 (4)^
same,cAMP pEC50,RXFP3 [2]; Table 2,9.08 ± 0.07 (5)
same,cAMP pEC50,RXFP4 [4],8.94 ± 0.13 (4)
"Ac-SGL[αMeC]YIR[αMeC]VIYISGGSRW (disulfide 4-8, also called disulfide stapled analogue) [Disulfide bridge stapled analogue (INSL5 B-chain, Formula IX)]",cAMP pEC50,[5],6.84
same,pKi,[6],7.33
"SGREFIRAVIFTSR (14 residues) [H3B10-22R13/17EA (Formula XII, truncated form of H3B1-22R)]",binding result,[7],no binding
same,pKi,[8],6.08
B1,cAMP pEC50,[5],8.1
same,pKi,[6],7.46
same,pKi,[9],8.11
B2,cAMP pEC50,[5],7.06
same,pKi,[6],6.8
same,pKi,[9],7.51
"Ac-SGL[S5]YIR[S5]VIYISGASRW (staple 4-8) [Hydrocarbon stapled analogue (INSL5 B-chain, Formula VI)]",cAMP pEC50,[5],6.18
same,pKi,[9],6.81
B3,cAMP pEC50,[5],7.39
same,pKi,[9],8.13
B4,cAMP pEC50,[5],< 5
same,binding result,[6],no binding
"SGLKYIRDVIYISGASRW (lactam 4-8) [Lactam Bridge stapled analogue (INSL5 B-chain, Formula VII)]",pKi,[9],6.45
"SGRFFIRFVIFTSR (14 residues) [H3B10-22R13/17FF (Formula XIII, non-alpha-methylated analogue of Formula X)]",binding result,[7],no binding
same,pKi,[8],6.67
B5,cAMP pEC50,[5],8.93
same,pKi,[9],8.64
B6,cAMP pEC50,[5],8.08
same,pKi,[9],8.06
B7,cAMP pEC50,[5],8.34
same,pKi,[6],8.43
same,pKi,[9],8.47
